{
  "source": "patent US20160243226A1",
  "key": {"CD74 (human)": {"biological_target": "CD74 (human) (UniProt P04233)", "sequence (P04233 whole entry)": "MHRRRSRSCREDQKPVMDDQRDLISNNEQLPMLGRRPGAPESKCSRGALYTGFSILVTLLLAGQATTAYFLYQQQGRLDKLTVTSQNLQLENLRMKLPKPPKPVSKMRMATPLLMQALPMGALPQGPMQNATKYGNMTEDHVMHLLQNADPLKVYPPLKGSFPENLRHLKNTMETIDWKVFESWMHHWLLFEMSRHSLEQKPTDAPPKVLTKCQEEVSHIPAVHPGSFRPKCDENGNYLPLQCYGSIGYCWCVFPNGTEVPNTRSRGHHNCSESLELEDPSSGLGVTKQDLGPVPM", "experiment": "cell-based or functional assay"}, "CD20 (human)": {"biological_target": "CD20 (human) (UniProt P11836)", "sequence (P11836 whole entry)": "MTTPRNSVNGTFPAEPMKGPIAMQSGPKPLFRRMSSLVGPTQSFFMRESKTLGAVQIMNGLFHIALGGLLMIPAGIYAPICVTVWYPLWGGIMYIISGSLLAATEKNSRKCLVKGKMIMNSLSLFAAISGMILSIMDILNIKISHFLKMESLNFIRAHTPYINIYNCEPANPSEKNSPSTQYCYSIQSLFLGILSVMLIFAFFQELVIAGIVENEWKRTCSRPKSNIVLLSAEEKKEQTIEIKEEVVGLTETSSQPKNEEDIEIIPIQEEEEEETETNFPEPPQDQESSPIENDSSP", "experiment": "cell-based or functional assay"}},
  "data": [
    {"substance": "74-(74)-(74) (antibody)", "values": [
      {"measurement": "EC50 (nM), MTS assay, JeKo-1", "setting": "CD74 (human)", "value": "> 100", "unit": "nM"}
    ]},
    {"substance": "20-Rap", "values": [
      {"measurement": "EC50, in vitro cytotoxicity, Daudi and Ramos", "setting": "CD20 (human)", "value": 0.1, "unit": "nM"},
      {"measurement": "EC50, in vitro cytotoxicity, Jeko-1", "setting": "CD20 (human)", "value": 0.02, "unit": "nM"}
    ]},
    {"substance": "Hex-hA20 (antibody)", "values": [
      {"measurement": "EC50 (nM), MTS assay, Daudi", "setting": "CD20 (human)", "value": 5.8, "unit": "nM"},
      {"measurement": "EC50 (nM), MTS assay, Granta-519", "setting": "CD20 (human)", "value": 0.2, "unit": "nM"},
      {"measurement": "EC50 (nM), MTS assay, Mino", "setting": "CD20 (human)", "value": 3.4, "unit": "nM"},
      {"measurement": "EC50 (nM), MTS assay, Raji", "setting": "CD20 (human)", "value": 8, "unit": "nM"}
    ]}
  ]
}
